Measured values as given in PMC9940316.
Each block holds one substance with its values, some of them ahead of it.

How the values were obtained:
[1] = molecular target: rabbit polyclonal anti-BSA antibody (IgG) (rabbit) (UniProt P01870); test: SPR; pH 7.5
[2] = molecular target: rabbit polyclonal anti-BSA antibody (IgG) (rabbit) (UniProt P01870); test: SPR; pH 4.0
[3] = molecular target: rabbit polyclonal anti-BSA antibody (IgG) (rabbit) (UniProt P01870); test: SPR; pH 4.6
[4] = molecular target: human plasma IgG4 (human); test: SPR; BIAcore 3000; human IgG subclass immobilised on CM5 chip by amine coupling (200-1000 RU); FcγRI mutants as analytes; steady-state fitting
[5] = molecular target: human IgG2 (human); test: as above
[6] = molecular target: human plasma IgG3 (human); test: as above
[7] = molecular target: VRC01 D265R mutant antibody (human); test: BLI; Octet R8; VRC01 or D265R mutant captured on Protein A biosensors (~5 nm); serial dilutions of FcγRI (Zymogenetics); 10mM Hepes pH7.5, 0.15M NaCl; 1:1 binding model
Chain of VRC01 D265R mutant antibody (human) (light, as listed by the source, chain 2 of 2, other chains not shown): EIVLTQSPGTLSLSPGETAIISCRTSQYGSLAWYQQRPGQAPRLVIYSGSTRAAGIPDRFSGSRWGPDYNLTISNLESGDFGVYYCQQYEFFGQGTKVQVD

[8] = molecular target: VRC01, human IgG1 isotype anti-gp120 antibody, wildtype (human); test: as above
Chain of VRC01, human IgG1 isotype anti-gp120 antibody, wildtype (human) (light, as listed by the source, chain 2 of 2, other chains not shown): as above

[9] = molecular target: human plasma IgG4 (human); test: SPR; BIAcore 3000; human IgG subclass immobilised on CM5 chip by amine coupling (200-1000 RU); wild type FcγRI as analyte; kinetic curve fitting
[10] = molecular target: human IgG2 (human); test: as above
[11] = molecular target: human plasma IgG3 (human); test: as above

Chain of rabbit polyclonal anti-BSA antibody (IgG) (rabbit) (P01870 whole entry, looked up): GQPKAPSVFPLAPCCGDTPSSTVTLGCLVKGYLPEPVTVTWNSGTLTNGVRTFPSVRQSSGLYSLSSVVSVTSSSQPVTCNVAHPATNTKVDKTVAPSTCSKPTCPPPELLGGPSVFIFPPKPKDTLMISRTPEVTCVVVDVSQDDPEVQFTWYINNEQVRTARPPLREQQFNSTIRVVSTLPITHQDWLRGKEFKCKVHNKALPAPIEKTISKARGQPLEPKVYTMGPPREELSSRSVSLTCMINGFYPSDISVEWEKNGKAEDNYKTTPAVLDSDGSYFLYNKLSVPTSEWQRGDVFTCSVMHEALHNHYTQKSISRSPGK
Chain of recombinant human FcγRI, wildtype (P12314 21-282): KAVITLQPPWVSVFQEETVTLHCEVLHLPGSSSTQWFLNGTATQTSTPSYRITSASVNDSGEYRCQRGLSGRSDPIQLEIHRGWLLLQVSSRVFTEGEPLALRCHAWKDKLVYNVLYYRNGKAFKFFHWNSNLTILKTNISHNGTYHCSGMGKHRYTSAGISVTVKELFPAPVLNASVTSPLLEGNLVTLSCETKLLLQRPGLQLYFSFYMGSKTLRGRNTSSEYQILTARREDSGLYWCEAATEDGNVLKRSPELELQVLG

Kd [1]: 7.8 nM
Kd [2]: 1.8 nM
Kd [3]: 10.1 nM
Substance: BSA

Kd [4]: 109 nM
Kd [5]: 32.8 nM
Kd [6]: 24.2 nM
Substance: FcγRI H174R variant (bovine FG-loop variant of human FcγRI) (from UniProt P12314 21-282) (receptor)

Kd [7]: 1160 nM
Kd [8]: 12 nM
Kd [9]: 65.7 nM
Kd [10]: 41 nM
Kd [11]: 28.6 nM
Substance: recombinant human FcγRI, wildtype (from UniProt P12314 21-282) (receptor)
